The target in assay [1] is T1, murine CD73 on 4T1 cells (mouse, UniProt Q61503).
T1 chain: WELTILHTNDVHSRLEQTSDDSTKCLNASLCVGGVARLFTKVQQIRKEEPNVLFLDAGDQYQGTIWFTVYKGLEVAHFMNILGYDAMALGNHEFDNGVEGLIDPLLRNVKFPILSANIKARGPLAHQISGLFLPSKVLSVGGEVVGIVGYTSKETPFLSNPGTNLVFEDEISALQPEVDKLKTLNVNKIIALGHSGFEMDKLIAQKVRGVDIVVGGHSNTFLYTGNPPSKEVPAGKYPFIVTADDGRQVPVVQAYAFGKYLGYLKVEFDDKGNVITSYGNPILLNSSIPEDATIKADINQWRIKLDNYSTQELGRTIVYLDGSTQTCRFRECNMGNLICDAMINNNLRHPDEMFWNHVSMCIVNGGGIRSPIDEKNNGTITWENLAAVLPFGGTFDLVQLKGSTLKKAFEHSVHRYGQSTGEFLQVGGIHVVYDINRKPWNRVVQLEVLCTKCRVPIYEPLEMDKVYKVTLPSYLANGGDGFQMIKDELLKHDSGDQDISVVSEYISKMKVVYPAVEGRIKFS
The assay is described as follows: FACS.

Assay [2] has as its target T2, CD73 V144K+K180A (human, UniProt P21589).
T2 chain: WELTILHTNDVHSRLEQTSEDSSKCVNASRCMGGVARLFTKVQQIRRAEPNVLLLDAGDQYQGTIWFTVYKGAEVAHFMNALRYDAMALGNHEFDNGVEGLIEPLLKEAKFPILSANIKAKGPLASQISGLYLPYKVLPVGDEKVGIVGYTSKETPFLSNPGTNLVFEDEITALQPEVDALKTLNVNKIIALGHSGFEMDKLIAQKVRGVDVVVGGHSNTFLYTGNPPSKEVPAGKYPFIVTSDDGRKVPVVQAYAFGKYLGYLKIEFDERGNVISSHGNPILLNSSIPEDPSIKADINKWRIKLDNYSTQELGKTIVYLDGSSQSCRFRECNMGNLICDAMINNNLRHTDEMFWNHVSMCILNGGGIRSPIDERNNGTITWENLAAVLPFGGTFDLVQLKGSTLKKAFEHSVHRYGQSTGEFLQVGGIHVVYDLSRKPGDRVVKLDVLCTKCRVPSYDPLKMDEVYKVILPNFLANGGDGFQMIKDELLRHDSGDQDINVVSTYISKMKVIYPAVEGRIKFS
The assay is described as follows: SPR, bivalent. In general terms: In SPR one partner is held on a chip, and binding of the other changes the refractive index at the surface.

For assay [3], the target named is T3, CD73 V144K+N185G (human, UniProt P21589).
T3 chain: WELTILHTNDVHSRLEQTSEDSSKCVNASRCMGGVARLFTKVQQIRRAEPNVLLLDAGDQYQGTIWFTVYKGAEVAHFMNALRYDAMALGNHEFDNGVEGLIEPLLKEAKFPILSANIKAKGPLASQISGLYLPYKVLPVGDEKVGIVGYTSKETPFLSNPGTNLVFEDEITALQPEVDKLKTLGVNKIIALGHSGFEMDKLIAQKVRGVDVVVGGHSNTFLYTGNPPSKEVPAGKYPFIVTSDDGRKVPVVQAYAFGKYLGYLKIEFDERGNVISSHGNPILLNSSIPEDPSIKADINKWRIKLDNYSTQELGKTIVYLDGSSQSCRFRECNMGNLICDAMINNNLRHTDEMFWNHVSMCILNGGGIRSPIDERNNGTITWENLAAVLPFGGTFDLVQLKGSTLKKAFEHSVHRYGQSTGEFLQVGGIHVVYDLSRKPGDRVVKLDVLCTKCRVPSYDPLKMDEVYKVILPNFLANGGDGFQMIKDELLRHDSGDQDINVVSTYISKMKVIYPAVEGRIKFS
The assay is described as follows: SPR, bivalent.

Assay [4] has as its target T4, murine CD73 ECD (mouse, UniProt Q61503).
T4 chain: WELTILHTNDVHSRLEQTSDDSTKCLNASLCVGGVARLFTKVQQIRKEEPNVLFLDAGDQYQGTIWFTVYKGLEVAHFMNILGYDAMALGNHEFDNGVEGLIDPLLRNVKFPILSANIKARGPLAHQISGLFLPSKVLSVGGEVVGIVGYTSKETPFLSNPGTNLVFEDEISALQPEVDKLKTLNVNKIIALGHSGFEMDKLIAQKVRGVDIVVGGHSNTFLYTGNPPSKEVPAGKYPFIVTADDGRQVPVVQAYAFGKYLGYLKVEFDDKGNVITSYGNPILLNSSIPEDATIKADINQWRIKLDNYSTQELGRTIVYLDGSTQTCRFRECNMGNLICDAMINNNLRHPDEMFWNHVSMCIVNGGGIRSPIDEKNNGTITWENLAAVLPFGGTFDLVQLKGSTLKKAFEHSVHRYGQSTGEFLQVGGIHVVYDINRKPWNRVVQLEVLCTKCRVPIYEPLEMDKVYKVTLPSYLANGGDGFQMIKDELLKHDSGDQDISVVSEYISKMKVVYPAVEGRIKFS
As to the kind of experiment: SPR.

Assay [5] concerns the target T1, murine CD73 on 4T1 cells. The assay is described as follows: FACS.
For assay [6], the target named is T5, CD73 V144K (human, UniProt P21589).
T5 chain: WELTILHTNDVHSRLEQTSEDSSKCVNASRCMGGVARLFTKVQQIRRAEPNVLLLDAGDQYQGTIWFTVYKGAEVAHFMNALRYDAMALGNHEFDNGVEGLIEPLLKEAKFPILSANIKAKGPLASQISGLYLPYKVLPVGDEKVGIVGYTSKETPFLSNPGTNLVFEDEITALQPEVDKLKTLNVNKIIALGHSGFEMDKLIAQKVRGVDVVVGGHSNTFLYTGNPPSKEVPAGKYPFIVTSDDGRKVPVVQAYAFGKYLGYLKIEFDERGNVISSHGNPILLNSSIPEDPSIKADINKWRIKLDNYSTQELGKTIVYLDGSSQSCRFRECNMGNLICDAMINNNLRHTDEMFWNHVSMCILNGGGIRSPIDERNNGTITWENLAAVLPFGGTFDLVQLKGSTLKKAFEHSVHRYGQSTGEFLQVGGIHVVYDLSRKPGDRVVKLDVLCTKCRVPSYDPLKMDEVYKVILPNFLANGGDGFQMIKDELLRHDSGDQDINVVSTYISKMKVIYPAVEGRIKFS
As to the kind of experiment: SPR, bivalent.

The target in assay [7] is T6, human CD73 on MDA-MB-231 cells (human, UniProt P21589).
T6 chain: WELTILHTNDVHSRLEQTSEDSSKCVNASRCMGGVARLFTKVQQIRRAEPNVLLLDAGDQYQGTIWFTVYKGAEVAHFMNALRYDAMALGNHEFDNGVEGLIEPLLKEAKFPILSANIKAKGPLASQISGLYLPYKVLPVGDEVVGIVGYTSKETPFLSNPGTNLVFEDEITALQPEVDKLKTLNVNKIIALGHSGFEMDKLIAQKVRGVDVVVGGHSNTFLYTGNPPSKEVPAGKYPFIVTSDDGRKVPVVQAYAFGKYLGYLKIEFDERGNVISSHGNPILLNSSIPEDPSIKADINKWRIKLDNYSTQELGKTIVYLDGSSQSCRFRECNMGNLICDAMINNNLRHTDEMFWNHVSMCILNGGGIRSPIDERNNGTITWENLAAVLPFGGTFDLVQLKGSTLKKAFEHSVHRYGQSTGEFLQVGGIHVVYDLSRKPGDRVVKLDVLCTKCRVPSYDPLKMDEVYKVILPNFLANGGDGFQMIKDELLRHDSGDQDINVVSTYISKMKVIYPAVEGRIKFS
The assay is described as follows: FACS.

For assay [8], the target named is T6, human CD73 on MDA-MB-231 cells. As to the kind of experiment: FACS. For orientation: In flow cytometry, cells or beads pass a laser one at a time.
Assay [9] concerns the target T7, CD73 N185G (human, UniProt P21589).
T7 chain: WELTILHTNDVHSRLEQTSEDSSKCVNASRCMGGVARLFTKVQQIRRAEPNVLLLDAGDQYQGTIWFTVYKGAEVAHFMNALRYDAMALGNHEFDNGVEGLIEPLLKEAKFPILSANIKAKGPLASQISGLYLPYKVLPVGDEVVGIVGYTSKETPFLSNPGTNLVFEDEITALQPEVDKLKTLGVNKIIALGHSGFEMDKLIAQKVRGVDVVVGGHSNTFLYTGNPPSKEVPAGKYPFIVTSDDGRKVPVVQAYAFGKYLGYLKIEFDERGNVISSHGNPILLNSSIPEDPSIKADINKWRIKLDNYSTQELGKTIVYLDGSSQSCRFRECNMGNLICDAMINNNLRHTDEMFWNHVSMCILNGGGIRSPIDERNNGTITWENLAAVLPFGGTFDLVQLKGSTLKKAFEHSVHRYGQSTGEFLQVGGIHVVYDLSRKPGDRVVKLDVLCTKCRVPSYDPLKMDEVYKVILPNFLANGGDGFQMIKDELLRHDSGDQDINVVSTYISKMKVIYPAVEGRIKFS
As to the kind of experiment: SPR, bivalent.

Assay [10] has as its target T8, CD73 K180A (human, UniProt P21589).
T8 chain: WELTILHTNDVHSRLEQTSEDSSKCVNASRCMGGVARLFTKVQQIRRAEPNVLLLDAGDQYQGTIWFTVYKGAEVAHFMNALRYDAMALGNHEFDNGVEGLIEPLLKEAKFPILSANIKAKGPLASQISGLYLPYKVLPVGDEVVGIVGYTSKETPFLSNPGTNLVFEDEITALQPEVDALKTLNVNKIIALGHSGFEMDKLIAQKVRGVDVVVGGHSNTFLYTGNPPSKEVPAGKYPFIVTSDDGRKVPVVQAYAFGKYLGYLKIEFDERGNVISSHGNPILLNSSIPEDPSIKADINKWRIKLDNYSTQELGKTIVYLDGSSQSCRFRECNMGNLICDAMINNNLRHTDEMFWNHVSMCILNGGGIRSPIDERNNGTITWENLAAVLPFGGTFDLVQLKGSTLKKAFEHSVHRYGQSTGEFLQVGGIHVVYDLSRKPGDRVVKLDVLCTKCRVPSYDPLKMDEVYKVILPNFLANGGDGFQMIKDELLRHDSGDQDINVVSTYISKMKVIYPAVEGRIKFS
As to the kind of experiment: SPR, bivalent.

In assay [11] the target is T9, human CD73 ECD (human, UniProt P21589).
T9 chain: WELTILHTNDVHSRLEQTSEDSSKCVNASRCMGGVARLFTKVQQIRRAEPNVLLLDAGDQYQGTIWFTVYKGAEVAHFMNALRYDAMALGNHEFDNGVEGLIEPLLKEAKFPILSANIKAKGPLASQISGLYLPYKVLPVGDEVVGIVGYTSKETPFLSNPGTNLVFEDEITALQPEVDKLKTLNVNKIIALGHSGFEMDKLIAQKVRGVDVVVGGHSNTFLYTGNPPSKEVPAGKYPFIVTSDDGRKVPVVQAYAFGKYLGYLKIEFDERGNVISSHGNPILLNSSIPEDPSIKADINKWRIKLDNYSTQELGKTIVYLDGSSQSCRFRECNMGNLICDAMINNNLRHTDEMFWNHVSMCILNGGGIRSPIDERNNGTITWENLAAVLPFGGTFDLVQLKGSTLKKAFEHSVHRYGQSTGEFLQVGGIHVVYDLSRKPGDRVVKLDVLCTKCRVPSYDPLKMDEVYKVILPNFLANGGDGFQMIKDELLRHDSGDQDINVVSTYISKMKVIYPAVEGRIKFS
The assay is described as follows: SPR.

The target in assay [12] is T9, human CD73 ECD. The assay is described as follows: SPR, bivalent.
Assay [13] has as its target T9, human CD73 ECD. As to the kind of experiment: SPR.
In assay [14] the target is T4, murine CD73 ECD. The assay is described as follows: SPR.
For assay [15], the target named is T10, CD73 K180A+N185G (human, UniProt P21589).
T10 chain: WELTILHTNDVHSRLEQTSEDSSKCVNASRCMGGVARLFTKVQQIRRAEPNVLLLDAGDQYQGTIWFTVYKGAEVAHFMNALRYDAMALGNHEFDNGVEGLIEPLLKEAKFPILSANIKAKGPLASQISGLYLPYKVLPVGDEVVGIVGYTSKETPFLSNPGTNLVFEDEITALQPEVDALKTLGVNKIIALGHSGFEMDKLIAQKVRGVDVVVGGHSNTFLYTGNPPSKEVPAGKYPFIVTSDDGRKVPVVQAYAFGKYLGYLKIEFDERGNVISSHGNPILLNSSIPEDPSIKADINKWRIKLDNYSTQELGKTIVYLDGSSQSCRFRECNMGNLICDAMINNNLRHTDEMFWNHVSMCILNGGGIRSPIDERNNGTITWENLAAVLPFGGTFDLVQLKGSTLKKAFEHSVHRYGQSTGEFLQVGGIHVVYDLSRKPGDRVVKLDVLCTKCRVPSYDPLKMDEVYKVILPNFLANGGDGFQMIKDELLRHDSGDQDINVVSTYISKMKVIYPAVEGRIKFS
The assay is described as follows: SPR, bivalent.

In assay [16] the target is T9, human CD73 ECD.

Read-outs that look alike come from different tables or passages of the source.

B1: MEDI9447 (73combo3, clone 10.3) (antibody, V domains shown)
VH: EVQLLESGGGLVQPGGSLRLSCAASGFTFSSYAYSWVRQAPGKGLEWVSAISGSGGRTYYADSVKGRFTISRDNSKNTLYLQMNSLRAEDTAVYYCARLGYGRVDEWGRGTLVTVSS
VL: QSVLTQPPSASGTPGQRVTISCSGSLSNIGRNPVNWYQQLPGTAPKLLIYLDNLRLSGVPDRFSGSKSGTSASLAISGLQSEDEADYYCATWDDSHPGWTFGGGTKLTVL
Turning to B1, the Kd was found to be 0.113 nM in [1]; 2.68 nM in assay [2]; 0.001 nM in assay [4]; 0.113 nM in [5]; 0.0814 nM in assay [6]; 0.154 nM in [7]. The Kd in assay [8] came to 0.154 nM; in assay [9] it was 0.0269 nM; in [10] it was 0.0435 nM; in [11], 0.0041 nM; in assay [12], 0.0042 nM; in assay [13], 0.004 nM. This molecule gave a Kd in assay [14] of 0.0009 nM. The binding result in [3] and in assay [15] was “no binding” in each case.

B2: MEDI9447 Fab (antibody, V domains shown)
VH: EVQLLESGGGLVQPGGSLRLSCAASGFTFSSYAYSWVRQAPGKGLEWVSAISGSGGRTYYADSVKGRFTISRDNSKNTLYLQMNSLRAEDTAVYYCARLGYGRVDEWGRGTLVTVSS
VL: QSVLTQPPSASGTPGQRVTISCSGSLSNIGRNPVNWYQQLPGTAPKLLIYLDNLRLSGVPDRFSGSKSGTSASLAISGLQSEDEADYYCATWDDSHPGWTFGGGTKLTVL
Turning to B2, the Kd in [16] turned out to be 0.327 nM.

The values are drawn from patent publication US10287362.
